Reference: patent US20260250711A1 (Alexion, published 2026)

Target: T1, human sortilin receptor (SORT1), recombinant protein (human, UniProt Q99523 78-755, limits assumed)
T1 construct: Recombinant protein; also called sortilin 1
T1 sequence (looked up): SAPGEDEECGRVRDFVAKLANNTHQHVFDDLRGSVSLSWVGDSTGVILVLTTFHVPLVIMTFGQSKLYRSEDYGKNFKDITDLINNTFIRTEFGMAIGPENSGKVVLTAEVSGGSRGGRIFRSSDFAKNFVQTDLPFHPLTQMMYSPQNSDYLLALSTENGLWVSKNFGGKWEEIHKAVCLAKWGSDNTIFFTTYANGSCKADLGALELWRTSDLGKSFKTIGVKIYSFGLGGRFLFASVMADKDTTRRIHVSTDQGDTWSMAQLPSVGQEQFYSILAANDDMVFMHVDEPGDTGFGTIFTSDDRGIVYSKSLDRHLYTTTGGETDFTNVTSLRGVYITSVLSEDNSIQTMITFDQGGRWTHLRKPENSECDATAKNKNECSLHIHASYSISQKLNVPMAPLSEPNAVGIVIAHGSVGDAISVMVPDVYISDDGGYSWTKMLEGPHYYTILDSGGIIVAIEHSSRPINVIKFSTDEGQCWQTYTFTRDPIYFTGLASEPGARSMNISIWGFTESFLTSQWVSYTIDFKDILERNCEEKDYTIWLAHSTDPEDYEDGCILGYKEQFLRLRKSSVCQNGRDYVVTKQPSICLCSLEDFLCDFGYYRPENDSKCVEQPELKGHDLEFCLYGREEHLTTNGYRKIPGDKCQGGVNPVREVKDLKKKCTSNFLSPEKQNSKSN
Assay: Biacore (SPR), His-tagged PGRNΔ3 over immobilized human sortilin

- binding result: no binding
B1: recombinant human His-tagged progranulin lacking the final three carboxy-terminal amino acids (PGRNΔ3) (ligand)
chain: TRCPDGQFCPVACCLDPGGASYSCCRPLLDKWPTTLSRHLGGPCQVDAHCSAGHSCIFTVSGTSSCCPFPEAVACGDGHHCCPRGFHCSADGRSCFQRSGNNSVGAIQCPDSQFECPDFSTCCVMVDGSWGCCPMPQASCCEDRVHCCPHGAFCDLVHTRCITPTGTHPLAKKLPAQRTNRAVALSSSVMCPDARSRCPDGSTCCELPSGKYGCCPMPNATCCSDHLHCCPQDTVCDLIQSKCLSKENATTDLLTKLPAHTVGDVKCDMEVSCPDGYTCCRLQSGAWGCCPFTQAVCCEDHIHCCPAGFTCDTQKGTCEQGPHQVPWMEKAPAHLSLPDPQALKRDVPCDNVSSCPSSDTCCQLTSGEWGCCPIPEAVCCSDHQHCCPQGYTCVAEGQCQRGSEIVAGLEKMPARRASLSHPRDIGCDQHTSCPVGQTCCPSLGGSWACCQLPHAVCCEDRQHCCPAGYTCNVKARSCEKEVVSAQPATFLARSPHVGVKDVECGEGHFCHDNQTCCRDNRQGWACCPYRQGVCCADRRHCCPAGFRCAARGTKCLRREAPRWDAPLRDPALR
notes: also called PGRNDel3; progranulinΔ3; not shown: HIS-tag fused to the N-terminal part of the protein
